In patent US12134663B2, “Cationic peptides for activating Lck” (Interk Peptide Therapeutics Limited, priority 2018, dated 2024):
“Also recorded” adds a separate entry of the source. Where a SMILES comes first, the peptide text is derived from it. Where no end group is shown, it is not given here. [ ]: non-standard residue; d: D form. ξ: configuration not given here. ξGly(decyl) = CCCCCCCCCCC(N)C(=O)O; 2Adod = 2-amino-dodecanoic acid

How the values were obtained:
K562 cells = experiment: Specific cytotoxicity of Calcein-AM stained K562 cells in PBMC co-culture; assay type: cell-based; conditions: PBMC pre-treated 0.08-1.25 μM 48 hrs, 5:1 ratio, 4 hrs; greater than IFN-α 2A; data not shown
Description: In brief, PBMC were incubated for 48 hrs then co-cultured together with Calcein AM stained K562 cells stimulated with or without human recombinant IFN-α 2A (5 ng/mL) for 4 hrs. Supernatants were assessed for Calcein green fluorescence intensity using the GloMax® Discover and percentage specific cytotoxicity was calculated. Data shown indicates mean percentage specific cytotoxicity +/− SEM, n=4. Data were analysed by paired t test in comparison to the vehicle control, *p<0.05.
PBMC were also pre-treated with or without the Lck activating polypeptides RSKAKNPLY-RRRRRRRRR (SEQ ID NO: 24, IK14800), RVKVKVVVV-RRRRRRRRR (SEQ ID NO: 58, IK15800), RSKAKNPLY-RRRRRRRRR-(2Adod)4-NH2 (SEQ ID NO: 65, IK14804) and RVKVKVVVV-RRRRRRRRR-(2Adod)4-NH2 (SEQ ID NO: 66, IK15804) (0.08-1.25 μM) for 48 hrs, then co-cultured with Calcein AM stained K562 cells at a 5:1 ratio and incubated for a further 4 hrs. Supernatants were assessed for Calcein green fluorescence intensity using the GloMax® Discover and percentage specific cytotoxicity was calculated. Data shown indicates mean percentage specific cytotoxicity +/− SEM, n=4. Data were analysed by repeated measures two-way ANOVA with Holm-Sidak's post-test comparing peptide treatment with vehicle control, *p<0.05, **P<0.01, ***P<0.001, ****p<0.0001.

Lck [1] = target: T1, Lck (Homo sapiens, UniProt P06239); experiment: In vitro Lck activation kinase study (Eurofins); assay type: biochemical; conditions: for Lck activation (in words): peptide 1 μM where stated
T1 construct: purchased Eurofins Pharma Discovery Services UK Limited
T1 sequence (P06239 whole entry): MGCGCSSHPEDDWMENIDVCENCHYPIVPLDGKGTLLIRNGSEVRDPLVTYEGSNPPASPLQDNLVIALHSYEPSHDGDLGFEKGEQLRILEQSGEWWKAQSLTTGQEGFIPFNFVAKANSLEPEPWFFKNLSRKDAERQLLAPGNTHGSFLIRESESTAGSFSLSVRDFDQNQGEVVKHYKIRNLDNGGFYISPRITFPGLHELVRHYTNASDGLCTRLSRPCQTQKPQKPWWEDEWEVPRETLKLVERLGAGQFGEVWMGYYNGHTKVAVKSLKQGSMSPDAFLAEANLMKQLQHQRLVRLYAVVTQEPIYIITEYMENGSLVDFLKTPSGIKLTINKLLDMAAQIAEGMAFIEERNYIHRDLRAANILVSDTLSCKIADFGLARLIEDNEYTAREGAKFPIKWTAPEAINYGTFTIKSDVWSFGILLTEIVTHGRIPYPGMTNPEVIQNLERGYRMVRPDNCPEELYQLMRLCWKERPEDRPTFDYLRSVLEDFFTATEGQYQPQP
Description: The ability of polypeptides of the present invention to activate Lck was examined in vitro. Lck is member of the Src family of tyrosine kinases. […] All results in are percentage Lck activity relative to control (100%).
Test polypeptides were assessed at a concentration of 1.0 μM.
The ability of polypeptides of the present invention to activate Src family kinases was examined in vitro. Kinase activation studies utilising peptides were carried out as described in Example 1, and all kinase activity values are shown as percentage relative to control.
The ability of polypeptides comprising both lysine and arginine to activate Lck in vitro was examined. Lck activation studies utilising peptides were carried out as described in Example 1, and all kinase activity values are shown as percentage relative to control.

Lck(h) = target: T2, Lck(h) (Homo sapiens, UniProt P06239); experiment: Western blot of Lck phosphorylation (4G10 and anti-pY394 antibodies); assay type: biochemical; conditions: peptide 1 and 10 μM, with ATP, 40 minutes
T2 construct: purchased Eurofins Pharma Discovery Services UK Limited
T2 sequence (P06239 whole entry): as above
Description: Western blot studies were performed by Eurofins Pharma Discovery Services UK Limited (Dundee, United Kingdom). […] Reactions were allowed to proceed for 40 minutes at room temperature before being stopped by the addition of SDS-sample buffer. In each case the Lck enzyme was diluted to yield 20 ng per 25 μl reaction. Appropriate controls in the absence of compound and peptide were also run as well as an untreated sample of both the Lck(h) and Lck(h) activated kinases. The resulting samples were then subjected to SDS-PAGE and western blot analysis using the antibodies 4G10 (anti-phospho-tyrosine antibody) (see FIG. 3) and anti-pY394 Lck (R&D Systems MAB7500) (see FIG. 2). An additional blot using the secondary detection antibody (anti-mouse-HRP) was also performed. The membranes were stained by Ponceau S to verify sample loading and effective protein transfer. The 4G10 antibody is a general anti-phospho-tyrosine antibody and there are several tyrosine residues in Lck but only one auto-phosphorylating tyrosine residue, i.e., at position Y394. […] Samples were as follows (numbers correspond to the lanes on the gel): • 1. Molecular weight markers • 2. Standard Lck • 3. Standard Lck+peptide substrate+ATP (no test peptide) • 4. Standard Lck−peptide substrate+ATP (no test peptide) • 5. Standard Lck+ATP+10Arg peptide (SEQ ID NO: 7, IK00100; 1 μM) (no peptide substrate) • 6. Standard Lck+ATP+10 Arg peptide (SEQ ID NO: 7, IK00100; 10 μM) (no peptide substrate) • 7. Standard Lck+ATP+8 Arg peptide (SEQ ID NO: 4, IK00800; 1 μM) (no peptide substrate) • 8. Standard Lck+ATP+8 Arg peptide (SEQ ID NO: 41K00800; 10 μM) (no peptide substrate) • 9. 10 Arg (SEQ ID NO: 7, IK00100) (10 μM) (test peptide only) • 10. 8 Arg (SEQ ID NO: 4, IK00800) (10 μM) (test peptide only)
The steps of the western blot protocol were as below: • SDS-PAGE gel: 50 minutes at 200V • Western blot transfer: 90 minutes at 25V • Membrane: Nitrocellulose Pre-Cut Blotting Membranes 0.2 μm pore size (LC2000 (Life Tech)) • Ponceau stain: 0.1% Ponceau S (w/v) in 5% acetic acid • The membrane was blocked with 10 mL PBST and 10% BSA for 1 hour before application of primary and secondary antibodies. Primary Antibodies: • 1. Anti-4G10 (Millipore 05-777) 1/1000 in PBST with overnight incubation at 4° C. followed by washing with 4×20 mL PBST. • 2. Anti-pY394 Lck (R&D Systems) 1/2500 in PBST with overnight incubation at 4° C. followed by washing with 4×20 mL PBST. Secondary Antibody:
Anti-mouse-hrp (Sigma A5278) 1/5000 in PBST followed by washing with 4×20 mL PBST for 5 hours on a spiral shaker at room temperature. Detection was performed via SuperSignal ELISA Pico Chemiluminescent Substrate—37070 (Pierce).

Lck [2] = target: T1, Lck; experiment: Lck Activity above control (1 µM) | Lck
Description: (§1) Table printed on a drawing sheet, FIG. 2
Head of the field: Lck Activity above control (1 µM) | Lck
(§2) First copying reader's note: Kinase activity above control for each Src family kinase at 1 µM peptide; the cell for IK00800/Fgr is printed as '%' without a digit.
Where the first naming reader finds the target: head: Lck Activity above control (1 µM) | Lck

wild-type Jurkat cells = experiment: IL-2 secretion in stimulated wild-type Jurkat cells (ELISA); assay type: cell-based, human; conditions: biotinylated anti-CD3, anti-CD28, avidin; 48 h exposure
Description: In brief, wild-type Jurkat cells (an immortalised line of human T lymphocyte cells) were stimulated by exposure to biotinylated anti-CD3 antibody in the presence of anti-CD28 antibody and avidin. During the culture period (48 hours or 72 hours) cells were exposed to test polypeptides. Cell supernatant was assayed for IL-2 at the end of 48 or 72 hours using a standard commercially available ELISA kit as described above.
In brief, cells were seeded at 1 million cells per well (12 well plate, 2 mL volume) and stimulated with Biotin-CD3, CD28, and avidin (5:5:1.25 μg). The cells were then treated with IK14804, and then incubated for 48 hours at 37° C. The supernatant (100 uL, n=3), was then analyzed for IL-2 content.
In brief, wild-type Jurkat cells (am immortalised line of human T lymphocyte cells) were stimulated by exposure to biotinylated anti-CD3 antibody in the presence of anti-CD28 antibody and avidin. Cells were seeded at 1 million cells per well (12 well plate, 2 mL volume) and stimulated with Biotin-anti-CD3, anti-CD28, and avidin (5:5:1.25 μg). Cells were treated with the test peptides and then incubated for 48 hours at 37° C. The supernatants (100 ul, n=3), were then analysed for IL-2 and IL-12 content. During the culture period (48 hours) cells were exposed to test polypeptide RSKAKNPLYR-(2Adod)4-NH2 (SEQ ID NO: 128). Cell supernatant was assayed for IL-2 and IL-12 at the end of 48 hours using standard commercially available ELISA kit as described above.

Fgr = experiment: Lck Activity above control (1 µM) | Fgr
Description: as §1
Head of the field: Lck Activity above control (1 µM) | Fgr
as §2
Where the first naming reader finds the target: head: Lck Activity above control (1 µM) | Fgr

Molecule	percentage of specific cytotoxicity (K562 cells)	Lck Activity above control (1 µM) | Lck (Lck [2]) [%]	Lck Activity above control (1 µM) | Fgr (Fgr) [%]	also measured
CCCCCCCCCCC(NC(=O)C(CCCCCCCCCC)NC(=O)C(CCCCCCCCCC)NC(=O)C(CCCCCCCCCC)NC(=O)[C@H](CCCNC(=N)N)NC(=O)[C@H](CCCNC(=N)N)NC(=O)[C@H](CCCNC(=N)N)NC(=O)[C@H](CCCNC(=N)N)NC(=O)[C@H](CCCNC(=N)N)NC(=O)[C@H](CCCNC(=N)N)NC(=O)[C@H](CCCNC(=N)N)NC(=O)[C@H](CCCNC(=N)N)NC(=O)[C@H](CCCNC(=N)N)NC(=O)[C@@H](NC(=O)[C@@H](NC(=O)[C@@H](NC(=O)[C@@H](NC(=O)[C@H](CCCCN)NC(=O)[C@@H](NC(=O)[C@H](CCCCN)NC(=O)[C@@H](NC(=O)[C@@H](N)CCCNC(=N)N)C(C)C)C(C)C)C(C)C)C(C)C)C(C)C)C(C)C)C(N)=O (some centres unmarked) [IK15804, RVKVKVVVVR-RRRRRRRR-(2Adod)4-NH2] (H-RVKVKVVVVRRRRRRRRR[ξGly(decyl)][ξGly(decyl)][ξGly(decyl)][ξGly(decyl)]-NH2)	increased the percentage of specific cytotoxicity			
RSKAKNPLYRRRRRRRRR-NH2 [IK14800, RSKAKNPLY-RRRRRRRRR-NH2]	increased the percentage of specific cytotoxicity			Lck activation (Lck [1]; peptide 1 μM, relative to control): 496%
RVKVKVVVVRRRRRRRRR-NH2 [IK15800, RVKVKVVVV-RRRRRRRRR]	increased the percentage of specific cytotoxicity			
RRRRRRRR [IK00800] [listing 1 of 2 here]				phosphorylation at Y394 of Lck (anti-pY394 antibody) (Lck(h); listed as 8 Arg): significant increase in the level of phosphorylation; level of phosphorylation on Lck (anti-phospho tyrosine 4G10 antibody) (Lck(h); listed as 8Arg): significant increase in the level of phosphorylation; also recorded: increased with increasing concentrations; phosphorylation at Y394 of Lck (anti-pY394 antibody) (Lck(h); listed as 8Arg): Increased auto-phosphorylation was associated with increasing concentration
RRRRRRRR [IK00800] [listing 2 of 2 here]		126		
RSKAKNPLYR (RSKAKNPLYR-{2Adod-2Adod-2Adod-2Adod-NH2}) [IK14000]				IL-2 secretion relative to control (wild-type Jurkat cells): increase IL-2 secretion; Lck activation (in words) (Lck [1]): do not activate Lck; Lck activation (in words) (Lck [1]; listed as RSKAKNPLYR): no Lck activation
RRRRRRRRRR [IK00100] [listing 1 of 2 here]		389	0	
RRRRRRRRRR [IK00100] [listing 2 of 2 here]				phosphorylation at Y394 of Lck (anti-pY394 antibody) (Lck(h); listed as 10 Arg): significant increase in the level of phosphorylation; level of phosphorylation on Lck (anti-phospho tyrosine 4G10 antibody) (Lck(h); listed as 10Arg): significant increase in the level of phosphorylation; also recorded: increased with increasing concentrations; phosphorylation at Y394 of Lck (anti-pY394 antibody) (Lck(h); listed as 10Arg): Increased auto-phosphorylation was associated with increasing concentration
CCCCCCCCCCC(NC(=O)C(CCCCCCCCCC)NC(=O)C(CCCCCCCCCC)NC(=O)C(CCCCCCCCCC)NC(=O)[C@H](CCCNC(=N)N)NC(=O)[C@H](CCCNC(=N)N)NC(=O)[C@H](CCCNC(=N)N)NC(=O)[C@H](CCCNC(=N)N)NC(=O)[C@H](CCCNC(=N)N)NC(=O)[C@H](CCCNC(=N)N)NC(=O)[C@H](CCCNC(=N)N)NC(=O)[C@H](CCCNC(=N)N)NC(=O)[C@H](CCCNC(=N)N)NC(=O)[C@H](Cc1ccc(O)cc1)NC(=O)[C@H](CC(C)C)NC(=O)[C@@H]1CCCN1C(=O)[C@H](CC(N)=O)NC(=O)[C@H](CCCCN)NC(=O)[C@H](C)NC(=O)[C@H](CCCCN)NC(=O)[C@H](CO)NC(=O)[C@@H](N)CCCNC(=N)N)C(N)=O (some centres unmarked) [IK14804, RSKAKNPLYR-RRRRRRRR-(2Adod)4-NH2] (H-RSKAKNPLYRRRRRRRRR[ξGly(decyl)][ξGly(decyl)][ξGly(decyl)][ξGly(decyl)]-NH2)	increased the percentage of specific cytotoxicity			
HHHHHHHHHH [10His]		0	0	
RSKAKNPLY-RRRRRRRRR-NH2 (RSKAKNPLYRRRRRRRRR-NH2) [IK14800]		578	0	
RSKAKNPLY [IK94000]				IL-2 secretion relative to control (wild-type Jurkat cells): increase IL-2 secretion; Lck activation (in words) (Lck [1]): no Lck activation; Lck activation (in words) (Lck [1]; listed as IK09400): do not activate Lck
RVKVKVVVV-RRRRRRRRR (RVKVKVVVVRRRRRRRRR) [IK15800]		593	0	
